Assay [1] concerns the target Her2/ERBB2 Protein, Human, Recombinant (ECD, His Tag) (human) (UniProt P04626). The experiment in a line: ELISA, control on human HER2 antigen.
The target is the same in assay [2]. The experiment in a line: ELISA, E. coli lysate supernatant on human HER2 antigen. A general note: An ELISA detects its analyte on a solid surface through an enzyme-linked reagent.

In the case of Irrelevant, in assay [1], the OD450 was found to be 0.073 OD450.

B1: M26H2-2002 (VHH)
VHH: QVQLVESGGGLVQPGGSLRLSCAASGFIFGNYPMNWYRQAPGKEREFVAVITRDGGVTRYAASVKGRFTITRDNAKNTVFLQMNSLKLEDTAVYYCHNPNYNAWGQGTQVTVAS
As to B1, the OD450 in assay [2] was determined as 0.804 OD450.

B2: M26H2-3134 (VHH)
VHH: QVQLVESGGGMVQPGGSLRLSCAASGITFRHYTMSWYRQAPGKERELVASITYGGVTTNYADSVKGRFTLSRDDAKTTAYLQMTGLKPEDTAVYYCHADWTAAGLNHWGQGTQVTVSS
Turning to B2, in assay [2], the OD450 is 1.03 OD450.

The record behind these values is patent EP4818210A1.
